Test results as given in article PMC6467989, “RNA recognition motifs of disease-linked RNA-binding proteins contribute to amyloid formation” (Scientific Reports, 2019).

B1: FUS RRM β2 peptide (peptide)
peptide: MINLYT
notes: FUS, human, β2 strand of the RRM, residues 321-326; source: synthetic peptide (synthesized by Mission Biotech)
B2: TDP-43 RRM1 β2b peptide (peptide)
peptide: GEVLMVQVKK
notes: TDP-43, human, β2 strand of RRM1, residues 128-137; source: synthetic peptide (synthesized by Mission Biotech)
B3: FUS RRM (residues 281–375) (domain or fragment, human, UniProt P35637 281-375, looked up)
chain: NSDNNTIFVQGLGENVTIESVADYFKQIGIIKTNKKTGQPMINLYTDRETGKLKGEATVSFDDPPSAKAAIDWFDGKEFSGNPIKVSFATRRADF
notes: Fused in Sarcoma (FUS), human, RNA recognition motif, residues 281-375; Vector PQE30 or pET28a; also called Fused in Sarcoma RRM; source: E. coli (M15 or BL21-CodonPlus (DE3) RIPL), purified (HisTrap FF, HiTrap Heparin HP, Superdex 75)
B4: TDP-43 RRM1 β2a peptide (peptide)
peptide: VLMVQVKK
notes: TDP-43, human, β2 strand of RRM1, residues 130-137; source: synthetic peptide (synthesized by Mission Biotech)

Legend:
[1] = biological target: the molecule itself; experiment: ATR-FTIR spectroscopy; fresh protein or peptide against freshly prepared fibrils washed and re-suspended in D2O; amide I band 1600–1700 cm^-1; self-assembly into amyloid fibrils of parallel β-sheets
[2] = biological target: the molecule itself; experiment: X-ray fibre diffraction; fibrils grown by agitation at room temperature for two days (RRMs 50 μM in 10 mM phosphate pH 7.5, 50 mM NaCl; peptides in water), also seen by negative-stain TEM; fibrils centrifuged, washed, dried, diffraction at room temperature; self-assembly into amyloid fibrils
[3] = biological target: the molecule itself; experiment: Thioflavin T fluorescence; fresh protein or fibrillar solutions mixed with ThT (final 20 μM), 10 mM phosphate buffer, excited at 442 nm, emission 460–600 nm; self-assembly into amyloid-like aggregates

Protein | binding result [2] | further results
B1 | – | binding result [1]: binds
B2 | binds | –
B3 | – | binding result [3]: binds
B4 | binds | –
